US20080107658A1 (AstraZeneca / MedImmune, published 2008)
Substitutions are numbered along the chain they refer to.

B1: 1133C11 human IgG4 (antibody, V domains shown)
VH: EVQLVQSGAEVKKPGSSVKVSCKASGGTFSTYGISWVRQAPGQGLEWIGGIIPIFDTGNSAQSFQGRVTITADESTSTAYMEVSSLRSDDTAVYYCASSSRIYDLNPSLTAYYDMDVWGQGTMVTVSS
VL: QAVLTQPSSVSTPPGQKVTISCSGSSSNIGNNYVSWYQQLPGTAPKLLIYDNNKRPSGIPDRFSGSKSGTSATLGITGLQTGDEADYYCGTWDSSLSAWVFGGGTKLTVL
B2: 1175H8 human IgG4 (antibody, V domains shown)
VH: B1 VH with G44R, L105A, N106T, P107T, S108G, A111P
VL: B1 VL with Q80R
B3: 1127D9 human IgG4 (antibody, V domains shown)
VH: EVQLVQSGAEVKKPGSSVKVSCKASGGTFSTYGISWVRQAPGQGLEWIGGIIPIFDTGNSAQSFQGRVTITADESTSTAYMEVSSLRSDDTAVYYCASSSRIYDYHTIAYYDMDVWGQGTMVTVSS
VL: B1 VL
B4: 1211G10 human IgG4 (antibody, V domains shown)
VH: B1 VH with K12R, S25Y, I48V, G58R, L105M, N106V, P107S, S108T, T110I, A111P
VL: B1 VL
B5: 1214A1 human IgG4 (antibody, V domains shown)
VH: B3 VH with K19R, Y105A, T107L, I108Q
VL: B1 VL with S57P, W92R
B6: G1230H7 human IgG4 (antibody, V domains shown)
VH: B1 VH with E1Q, I48M, V83L, D89E, S98R, L105F, P107S, S108A, T110I, A111S
VL: B1 VL with A2S, S8P, T12A, P13A
B7: 1126F1 human IgG4 (antibody, V domains shown)
VH: B1 VH with S7T, L105A, P107R, S108Q, L109A, T110V, A111P
VL: B1 VL with K17M, N28D
B8: 1158A1 human IgG4 (antibody, V domains shown)
VH: B1 VH with D56G, L105H, N106H, P107N, S108H, L109V, T110G, A111G
VL: B1 VL with V34A, S94G
B9: 1126G5 human IgG4 (antibody, V domains shown)
VH: B1 VH with L105F, N106T, P107S, S108G, T110A, A111P
VL: B1 VL with S57P, A98T
B10: G1165D4 human IgG4 (antibody, V domains shown)
VH: B1 VH with E1Q, I48M, V83L, D89E, S98R
VL: QSVLTQPPSVSAAPGQKVTISCSGSSSNIENNYVSWYQQLPGTAPKLLIYDNNKRPSGIPDRFSGSKSGTSATLGITGLQTGDEADYYCGTWDSSLSAWVFGGGTKLTV
B11: 1155H1 human IgG4 (antibody, V domains shown)
VH: B1 VH with L105F, N106H, P107L, S108A, L109N, T110K, A111G
VL: B1 VL with V18A, G75D
B12: 1127F9 human IgG4 (antibody, V domains shown)
VH: B1 VH with E82K, L105Y, N106I, S108G, L109M, T110R, A111P
VL: B1 VL with S25N, K67R, S71L
B13: 1131D7 human IgG4 (antibody, V domains shown)
VH: B1 VH with L105F, P107S, T110I
VL: B1 VL with A85T, G102S
B14: 1160E3 human IgG4 (antibody, V domains shown)
VH: B1 VH with V18A
VL: B10 VL with S2A, P8S, A12T, A13P, S26N, E30G
B15: 1230H7 human IgG4 (antibody, V domains shown)
VH: B1 VH with V2M, L105F, P107S, S108A, T110I, A111S
VL: B10 VL with S2A, P8S, A12T, A13P, E30G
B16: 1126H5 human IgG4 (antibody, V domains shown)
VH: B1 VH with T57A, Y80H, D89E, L105H, N106H, P107I, S108Q, L109K, T110G, A111G
VL: B1 VL
B17: 1218H5 human IgG4 (antibody, V domains shown)
VH: B1 VH with E10V, N59S
VL: B1 VL with I29T, P41S
B18: 1214D10 human IgG4 (antibody, V domains shown)
VH: B1 VH with V11A, Q43R, T69A, L105A, N106H, P107L, S108N, L109H, T110H, A111G
VL: B1 VL with T81A
B19: 1152H5 human IgG4 (antibody, V domains shown)
VH: B1 VH with E46V, L105M, N106I, P107S, T110Q, A111P
VL: B1 VL with V18A
B20: 1165D4 human IgG4 (antibody, V domains shown)
VH: B1 VH
VL: B1 VL with G30E
B21: 1227H8 human IgG4 (antibody, V domains shown)
VH: QMQLVQSGAEVKKTGSSVKVSCKASGHTFAYHYLHWVRQAPGQGLEWMGGIIPIFGTTNYAQRFQDRVTITADESTSTAYMELSSLRSEDTAVYYCASADYAWESYQPPQINGVWGRGTMVTVSS
VL: QSVLTQPPSVSAAPGQKVTITCSGSTSNIGNNYVSWYQQHPGKAPKLMIYDVSKRPSGVPDRFSGSKSGNSASLDISGLQSEDEADYYCAAWDDSLSEFFFGTGTKLTVL
B22: 1230D8 human IgG4 (antibody, V domains shown)
VH: QMQLVQSGAEVKKTGSSVKVSCKASGYTFPYHYLHWVRQAPGQGLEWMGGIIPIFGTTNYAQRFQDRVTITADESTSTAYMEFSSLRSEDTAVYYCASADYVWESYHPATSLSLWGRGTMVTVSS
VL: B21 VL with T21S, S23P, H40R, G78E, F100L

The binders below were run against human nerve growth factor (beta-NGF) (human, UniProt P01138 122-241) (assay: cell-based or functional assay).
human nerve growth factor (beta-NGF), sequence (P01138 122-241): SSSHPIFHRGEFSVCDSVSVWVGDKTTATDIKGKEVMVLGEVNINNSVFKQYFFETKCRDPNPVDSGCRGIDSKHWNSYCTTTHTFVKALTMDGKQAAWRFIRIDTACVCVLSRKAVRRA
B1 was tested, and the “IC50, FLIPR calcium mobilisation” value was 0.45 nM, the “IC50, PC12 cell survival” value was 0.53 nM and the “IC50, TF-1 cell proliferation” value was 0.1 nM. In the case of B2, the “IC50, FLIPR calcium mobilisation” value is reported as 0.37 nM and the “IC50, PC12 cell survival” value is reported as 1.1 nM. For B3, the “IC50, FLIPR calcium mobilisation” value was 0.4 nM and the “IC50, PC12 cell survival” value was 0.57 nM. B4 was tested, and the “IC50, FLIPR calcium mobilisation” value was 0.37 nM and the “IC50, PC12 cell survival” value was 0.58 nM. With B5 the “IC50, FLIPR calcium mobilisation” value was 0.26 nM and the “IC50, PC12 cell survival” value was 0.52 nM. B6 was tested, and the “IC50, FLIPR calcium mobilisation” value was 0.31 nM and the “IC50, PC12 cell survival” value was 2.5 nM. For B7, the “IC50, FLIPR calcium mobilisation” value was 0.35 nM and the “IC50, PC12 cell survival” value was 2.9 nM. B8 was tested, and the “IC50, FLIPR calcium mobilisation” value was 0.34 nM and the “IC50, PC12 cell survival” value was 0.48 nM. With B9 the “IC50, FLIPR calcium mobilisation” value was 0.23 nM and the “IC50, PC12 cell survival” value was 1.5 nM. For B10, the “IC50, FLIPR calcium mobilisation” value was 0.32 nM and the “IC50, PC12 cell survival” value was 0.86 nM. B11 was tested, and the “IC50, FLIPR calcium mobilisation” value was 0.35 nM and the “IC50, PC12 cell survival” value was 0.59 nM. B12 was tested, and the “IC50, FLIPR calcium mobilisation” value was 0.36 nM and the “IC50, PC12 cell survival” value was 0.59 nM. With B13 the “IC50, FLIPR calcium mobilisation” value was 117 nM and the “IC50, PC12 cell survival” value was 670 nM. For B14, the “IC50, FLIPR calcium mobilisation” value was 0.33 nM and the “IC50, PC12 cell survival” value was 0.4 nM. For B15, the “IC50, FLIPR calcium mobilisation” value was 0.27 nM and the “IC50, PC12 cell survival” value was 0.42 nM. For B16, the “IC50, FLIPR calcium mobilisation” value was 0.38 nM and the “IC50, PC12 cell survival” value was 8.7 nM. For B17, the “IC50, FLIPR calcium mobilisation” value was 0.33 nM and the “IC50, PC12 cell survival” value was 0.47 nM. B18 was tested, and the “IC50, FLIPR calcium mobilisation” value was 0.29 nM and the “IC50, PC12 cell survival” value was 0.35 nM. B19 was tested, and the “IC50, FLIPR calcium mobilisation” value was 0.22 nM, the “IC50, PC12 cell survival” value was 0.4 nM and the “IC50, TF-1 cell proliferation” value was 0.26 nM. For B20, the “IC50, FLIPR calcium mobilisation” value was 0.26 nM and the “IC50, PC12 cell survival” value was 0.41 nM. For B21, the “IC50, FLIPR calcium mobilisation” value was 0.44 nM and the “IC50, PC12 cell survival” value was 0.7 nM. For B22, the “IC50, FLIPR calcium mobilisation” value was 0.31 nM and the “IC50, PC12 cell survival” value was 0.71 nM.

Each binder was assayed against rat nerve growth factor (beta-NGF) (rat, UniProt P25427 122-241) (assay: cell-based or functional assay).
rat nerve growth factor (beta-NGF), sequence (P25427 122-241): as the sequence (P01138 122-241) above, with S3T, I6V, R9M, M37T, D60A, D65E, M92T, G94D, V117A, A120G counted along it
In the case of B1, the “IC50, FLIPR calcium mobilisation” value is reported as 0.3 nM, the “IC50, PC12 cell survival” value is reported as 0.42 nM and the “IC50, TF-1 cell proliferation” value is reported as 0.12 nM. With B2 the “IC50, FLIPR calcium mobilisation” value was 0.15 nM. With B3 the “IC50, FLIPR calcium mobilisation” value was 0.22 nM. For B4, the “IC50, FLIPR calcium mobilisation” value was 0.16 nM. B5 was tested, and the “IC50, FLIPR calcium mobilisation” value was 0.16 nM and the “IC50, PC12 cell survival” value was 0.43 nM. In the case of B6, the “IC50, FLIPR calcium mobilisation” value is reported as 0.34 nM and the “IC50, PC12 cell survival” value is reported as 7.5 nM. B7 was tested, and the “IC50, FLIPR calcium mobilisation” value was 0.15 nM. With B8 the “IC50, FLIPR calcium mobilisation” value was 0.12 nM. With B9 the “IC50, FLIPR calcium mobilisation” value was 0.16 nM. B10 was tested, and the “IC50, FLIPR calcium mobilisation” value was 0.33 nM and the “IC50, PC12 cell survival” value was 2.63 nM. With B11 the “IC50, FLIPR calcium mobilisation” value was 0.18 nM. B12 was tested, and the “IC50, FLIPR calcium mobilisation” value was 0.14 nM. With B13 the “IC50, FLIPR calcium mobilisation” value was 37 nM. B14 was tested, and the “IC50, FLIPR calcium mobilisation” value was 0.13 nM. In the case of B15, the “IC50, FLIPR calcium mobilisation” value is reported as 0.18 nM and the “IC50, PC12 cell survival” value is reported as 0.32 nM. For B16, the “IC50, FLIPR calcium mobilisation” value was 0.15 nM. In the case of B17, the “IC50, FLIPR calcium mobilisation” value is reported as 0.13 nM. B18 was tested, and the “IC50, FLIPR calcium mobilisation” value was 0.14 nM. B19 was tested, and the “IC50, FLIPR calcium mobilisation” value was 0.21 nM, the “IC50, PC12 cell survival” value was 0.38 nM and the “IC50, TF-1 cell proliferation” value was 0.08 nM. B20 was tested, and the “IC50, FLIPR calcium mobilisation” value was 0.15 nM and the “IC50, PC12 cell survival” value was 0.41 nM. For B21, the “IC50, FLIPR calcium mobilisation” value was 0.43 nM and the “IC50, PC12 cell survival” value was 35 nM. B22 was tested, and the “IC50, FLIPR calcium mobilisation” value was 0.29 nM and the “IC50, PC12 cell survival” value was 37 nM.

Each binder was assayed against mouse nerve growth factor (mouse, UniProt P01139 122-241) (assay: cell-based or functional assay).
mouse nerve growth factor, sequence (P01139 122-241): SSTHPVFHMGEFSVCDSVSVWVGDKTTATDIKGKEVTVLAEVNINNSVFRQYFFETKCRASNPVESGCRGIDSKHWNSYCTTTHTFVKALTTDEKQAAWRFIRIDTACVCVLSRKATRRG
B1 was tested, and the “IC50, FLIPR calcium mobilisation” value was 0.28 nM and the “IC50, TF-1 cell proliferation” value was 0.1 nM. For B2, the “IC50, FLIPR calcium mobilisation” value was 0.16 nM. B3 was tested, and the “IC50, FLIPR calcium mobilisation” value was 0.21 nM. In the case of B4, the “IC50, FLIPR calcium mobilisation” value is reported as 0.15 nM. For B5, the “IC50, FLIPR calcium mobilisation” value was 0.14 nM. B6 was tested, and the “IC50, FLIPR calcium mobilisation” value was 0.25 nM. For B7, the “IC50, FLIPR calcium mobilisation” value was 0.22 nM. With B8 the “IC50, FLIPR calcium mobilisation” value was 0.11 nM. With B9 the “IC50, FLIPR calcium mobilisation” value was 0.16 nM. B10 was tested, and the “IC50, FLIPR calcium mobilisation” value was 0.27 nM. For B11, the “IC50, FLIPR calcium mobilisation” value was 0.18 nM. In the case of B12, the “IC50, FLIPR calcium mobilisation” value is reported as 0.2 nM. For B13, the “IC50, FLIPR calcium mobilisation” value was 71 nM. B14 was tested, and the “IC50, FLIPR calcium mobilisation” value was 0.12 nM. With B15 the “IC50, FLIPR calcium mobilisation” value was 0.15 nM. With B16 the “IC50, FLIPR calcium mobilisation” value was 0.23 nM. In the case of B17, the “IC50, FLIPR calcium mobilisation” value is reported as 0.15 nM. B18 was tested, and the “IC50, FLIPR calcium mobilisation” value was 0.13 nM. With B19 the “IC50, FLIPR calcium mobilisation” value was 0.14 nM and the “IC50, TF-1 cell proliferation” value was 0.07 nM. With B20 the “IC50, FLIPR calcium mobilisation” value was 0.16 nM. With B21 the “IC50, FLIPR calcium mobilisation” value was 0.48 nM. In the case of B22, the “IC50, FLIPR calcium mobilisation” value is reported as 0.37 nM.
